Reference: paper PMC7717906 (eLife, 2020)

Biological target: the molecule itself
Assay: SEC

B1: His-MoOsm1 (enzyme)
chain: MAEFVRAQIFGTTFEITSRYSDLQPVGMGAFGLVCSARDQLTNQNVAIKKIMKPFSTPVLAKRTYRELKLLKHLKHENVISLSDIFISPLEDIYFVTELLGTDLHRLLTSRPLEKQFIQYFLYQIMRGLKYVHSAGVVHRDLKPSNILVNENCDLKICDFGLARIQDPQMTGYVSTRYYRAPEIMLTWQKYDVEVDIWSAGCIFAEMLEGKPLFPGKDHVNQFSIITELLGTPPDDVINTIASENTLRFVKSLPKRERQPLKNKFKNADPSAIDLLERMLVFDPKKRITATEALAHEYLTPYHDPTDEPIAEEKFDWSFNDADLPVDTWKIMMYSEILDYHNAEAGMQQMDDQFTGQ
In the case of B1, the “stoichiometry N” value is reported as 2.
